How the values were obtained:
[1] = biological target: human α-thrombin (human) (UniProt P00734)
[2] = biological target: T1, activated protein C (APC) (UniProt P04070;P04070 43-197;212-461); test: BLI; dissociation in binding buffer (Ca2+); 500 nM APC; Binding buffer with Ca2+ (composition not in material); elution buffer 10 mM Tris-HCl, 144 mM NaCl, pH 7.4, 5 mM EDTA; bead capture at RT, 30 min; settings: protein: commercial; copies: 1;1; label: 3'-TEG-biotin
[3] = biological target: protein C (PC, zymogen, Ceprotin) (UniProt P04070;P04070 43-197;200-461); test: pull-down (aptamer-loaded magnetic beads); PC activation mixture; PC in eluate below <0.2-0.24 µg/ml; Binding buffer with Ca2+ (composition not in material); elution buffer 10 mM Tris-HCl, 144 mM NaCl, pH 7.4, 5 mM EDTA; bead capture at RT, 30 min; settings: protein: commercial; copies: 1;1
Chain of protein C (PC, zymogen, Ceprotin) (P04070 43-197, chain 1 of 2): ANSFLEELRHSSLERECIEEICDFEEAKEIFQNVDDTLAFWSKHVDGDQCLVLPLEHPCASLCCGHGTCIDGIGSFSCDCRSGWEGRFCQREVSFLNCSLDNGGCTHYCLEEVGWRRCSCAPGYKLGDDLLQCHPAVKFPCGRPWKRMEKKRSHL
Chain of protein C (PC, zymogen, Ceprotin) (P04070 200-461, chain 2 of 2): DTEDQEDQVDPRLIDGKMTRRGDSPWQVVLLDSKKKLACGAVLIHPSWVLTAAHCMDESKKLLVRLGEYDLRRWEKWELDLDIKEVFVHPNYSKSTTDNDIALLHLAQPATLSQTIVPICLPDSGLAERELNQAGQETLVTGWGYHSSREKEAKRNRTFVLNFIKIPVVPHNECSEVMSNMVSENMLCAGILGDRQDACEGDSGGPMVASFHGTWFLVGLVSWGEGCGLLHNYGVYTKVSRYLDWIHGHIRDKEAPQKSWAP

[4] = biological target: T1, activated protein C (APC); test: pull-down (aptamer-loaded magnetic beads); Ca2+ binding buffer; eluted with 5 mM EDTA; Binding buffer with Ca2+ (composition not in material); elution buffer 10 mM Tris-HCl, 144 mM NaCl, pH 7.4, 5 mM EDTA; bead capture at RT, 30 min; settings: protein: commercial; copies: 1;1
[5] = biological target: T1, activated protein C (APC); test: pull-down (aptamer-loaded magnetic beads); Ca2+ binding buffer; 10 µg APC; Binding buffer with Ca2+ (composition not in material); elution buffer 10 mM Tris-HCl, 144 mM NaCl, pH 7.4, 5 mM EDTA; bead capture at RT, 30 min; settings: protein: commercial; copies: 1;1

T1 sequence (P04070 43-197, chain 1 of 2): as the sequence (P04070 43-197, chain 1 of 2) above
T1 sequence (P04070 212-461, chain 2 of 2): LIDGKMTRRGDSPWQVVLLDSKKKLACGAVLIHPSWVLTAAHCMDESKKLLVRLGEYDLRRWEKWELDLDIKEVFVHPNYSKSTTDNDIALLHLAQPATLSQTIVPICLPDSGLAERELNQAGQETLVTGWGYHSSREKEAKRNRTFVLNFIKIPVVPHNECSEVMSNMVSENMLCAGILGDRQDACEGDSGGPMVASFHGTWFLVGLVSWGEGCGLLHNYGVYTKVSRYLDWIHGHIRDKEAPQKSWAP

recombinant hirudin (Refludan, Bayer Health Care) (natural protein)
IC50 of hirudin for thrombin-catalysed hydrolysis of the fluorogenic substrate Boc-Asp(OBzl)-Pro-Arg-AMC; 2.5 µg/ml (68 nM) thrombin, hirudin 14 nM to 14 µM, 30 min in activation buffer [1]: 170 nM
IC50 of hirudin for thrombin-catalysed hydrolysis of the fluorogenic substrate Boc-Asp(OBzl)-Pro-Arg-AMC; 12.5 µg/ml (341 nM) thrombin, hirudin 14 nM to 14 µM, 30 min in activation buffer [1]: 1960 nM
IC50 of hirudin for thrombin-catalysed hydrolysis of the fluorogenic substrate Boc-Asp(OBzl)-Pro-Arg-AMC; 20 µg/ml (545 nM) thrombin, hirudin 14 nM to 14 µM, 30 min in activation buffer [1]: 2260 nM

B1: HS02-52G (ssDNA)
DNA: GCCTCCTAACTGAGCTGTACTCGACTTATCCCGGATGGGGCTCTTAGGAGGC
binding result [2]: binds

B2: HS02-52G-NH2 (ssDNA)
DNA: GCCTCCTAACTGAGCTGTACTCGACTTATCCCGGATGGGGCTCTTAGGAGGC
modifications: 3'-HEG-amino
binding result [3]: no binding
binding result [4]: binds

B3: AD02-52 (antisense control) (ssDNA)
DNA: GCCTCCTAAGAGCCCCATCCGGGATAAGTCGAGTACAGCTCAGTTAGGAGGC
modifications: 3'-HEG-amino
binding result [5]: no binding

Reference: article PMC9056527, “Aptamer loaded superparamagnetic beads for selective capturing and gentle release of activated protein C”
